Data on three molecules can be found in US20040038894A1, “Compounds for modulating cell negative regulations and biological applications thereof” (INSTITUT NATIONAL DE LA SANTE ET DE LA RECHERCHE MEDICALE …, priority 1996, published 2004).

Where no end group is shown, it is not given here. [ ]: non-standard residue; d: D form. The star is where a group is joined. Biotin = O=C1N[C@H]2[C@H](CS[C@H]2CCCCC(=O)*)N1; pY = N[C@@H](Cc1ccc(OP(=O)(O)O)cc1)C(=O)O

Assay [1] addresses T1, SHP-1 protein tyrosine phosphatase from RBL-2H3 cell lysates (rat (cell line RBL-2H3), UniProt P81718 1-613).
T1 construct: Detected by immunoblot with anti-SHP-1 mAb
The experiment in a line: cell lysate adsorption to peptide beads, immunoblot (RBL-2H3).

The target of assay [2] is T2, SHP-2 protein tyrosine phosphatase from RBL-2H3 cell lysates (rat (cell line RBL-2H3), UniProt P41499 2-593).
T2 construct: Detected by immunoblot with anti-SHP-2 mAb
T2 sequence (looked up): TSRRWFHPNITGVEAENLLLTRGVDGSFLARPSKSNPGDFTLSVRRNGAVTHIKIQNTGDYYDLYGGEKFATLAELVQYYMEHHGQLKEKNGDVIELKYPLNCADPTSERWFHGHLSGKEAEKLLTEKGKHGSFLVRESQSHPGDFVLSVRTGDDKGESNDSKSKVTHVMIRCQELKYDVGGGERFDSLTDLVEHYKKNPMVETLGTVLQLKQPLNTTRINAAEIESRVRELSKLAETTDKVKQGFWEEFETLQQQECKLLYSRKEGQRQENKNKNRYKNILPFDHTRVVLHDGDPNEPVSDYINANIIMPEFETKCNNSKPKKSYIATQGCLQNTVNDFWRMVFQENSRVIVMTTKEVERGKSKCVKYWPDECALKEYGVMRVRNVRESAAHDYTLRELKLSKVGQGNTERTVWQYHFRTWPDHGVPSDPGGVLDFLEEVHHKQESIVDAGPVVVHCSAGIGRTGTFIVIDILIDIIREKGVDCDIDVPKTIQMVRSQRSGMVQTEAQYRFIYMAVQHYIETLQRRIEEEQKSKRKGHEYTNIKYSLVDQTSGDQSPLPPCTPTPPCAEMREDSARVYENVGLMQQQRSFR
The assay is described as above.

The target in assay [3] is T3, SHIP polyinositol phosphatase from RBL-2H3 cell lysates (rat (cell line RBL-2H3), UniProt P97573 1-1190, limits assumed).
T3 construct: Detected by immunoblot with anti-SHIP antiserum
T3 sequence (looked up): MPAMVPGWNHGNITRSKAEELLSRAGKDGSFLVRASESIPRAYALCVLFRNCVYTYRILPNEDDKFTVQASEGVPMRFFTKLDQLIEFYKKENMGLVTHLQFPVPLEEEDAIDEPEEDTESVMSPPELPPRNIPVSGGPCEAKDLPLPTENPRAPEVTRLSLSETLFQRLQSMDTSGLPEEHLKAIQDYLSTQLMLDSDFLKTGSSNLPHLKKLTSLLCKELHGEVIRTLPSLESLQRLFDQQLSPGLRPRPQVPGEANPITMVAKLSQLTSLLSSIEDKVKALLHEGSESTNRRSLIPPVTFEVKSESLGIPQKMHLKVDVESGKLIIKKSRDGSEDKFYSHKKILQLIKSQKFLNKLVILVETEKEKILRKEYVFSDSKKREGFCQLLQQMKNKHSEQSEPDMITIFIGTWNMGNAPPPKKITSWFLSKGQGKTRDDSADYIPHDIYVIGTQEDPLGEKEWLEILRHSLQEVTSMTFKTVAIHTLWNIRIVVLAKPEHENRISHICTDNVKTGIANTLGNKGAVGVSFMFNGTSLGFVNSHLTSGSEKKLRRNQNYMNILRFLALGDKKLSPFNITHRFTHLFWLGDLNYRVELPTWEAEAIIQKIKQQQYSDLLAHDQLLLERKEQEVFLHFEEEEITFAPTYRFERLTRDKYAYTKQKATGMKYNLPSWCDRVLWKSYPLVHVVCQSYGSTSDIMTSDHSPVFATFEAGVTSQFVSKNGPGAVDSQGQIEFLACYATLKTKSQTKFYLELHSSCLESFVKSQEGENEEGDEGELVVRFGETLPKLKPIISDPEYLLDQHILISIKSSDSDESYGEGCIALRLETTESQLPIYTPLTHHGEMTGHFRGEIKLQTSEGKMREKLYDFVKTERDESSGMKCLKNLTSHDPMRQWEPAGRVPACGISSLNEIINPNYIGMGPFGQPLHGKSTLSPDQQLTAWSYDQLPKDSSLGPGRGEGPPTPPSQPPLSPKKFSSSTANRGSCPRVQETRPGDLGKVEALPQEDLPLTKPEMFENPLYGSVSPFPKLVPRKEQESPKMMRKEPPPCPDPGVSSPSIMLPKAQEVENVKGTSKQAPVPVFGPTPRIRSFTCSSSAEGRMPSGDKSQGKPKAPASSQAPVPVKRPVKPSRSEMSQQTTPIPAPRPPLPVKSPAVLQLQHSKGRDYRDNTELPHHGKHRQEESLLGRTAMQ
Description: cell lysate adsorption to peptide beads, immunoblot (RBL-2H3), FIG. 15A. As to the method: In an attempt to characterize the function of these putative ITIMs, cell lysates were incubated with phosphorylated and nonphosphorylated synthetic peptides corresponding to the N-terminal and the C-terminal I/VxYxxL stretches present in NKG2A intracytoplasmic domain. Cell lysates absorbed to peptides were then assayed by immunoblotting for the presence of the phosphatases known to interact with phosphorylated ITIMs, i.e. the protein tyrosine phosphatases SHP-1 and SHP-2, as well as the polyinositol phosphate phosphatase, SHIP. In parallel, lysates adsorption were performed using control peptides corresponding to ITIMs present in Ig-like ITIM bearing receptors such as human KIRs (p58.2/CD158b, a receptor for HLA-Cw3) and mouse FcγRIIB, as well as in mouse lectin-like ITIM-bearing receptor, such as Ly-49A.
As shown in FIG. 15A (lanes 1 and 2), both N- and C-terminal I/VxYxxL stretches present in NKG2A associate with SHP-1 and SHP-2 in vitro, but no binding to SHIP was detected. Similar patterns of association were obtained using the phosphorylated ITIM peptides of […] and p58.2 KIR (FIG. 15A, lanes 3 to 5). In contrast, FcγRIIB phosphorylated ITIM peptides also associate with SHIP (FIG. 15A, lane 6). No association of phosphatases with nonphosphorylated peptides corresponding to FcγRIIB (FIG. 15A, lane 7) and NKG2A N- and C-terminal I/VxYxxL stretches was detected. When nonphosphorylated and phosphorylated peptides were used to adsorb lysates prepared from ³⁵S methionine/cysteine-labeled cells, only two bands around 64 and 68 kDa selectively associate with both phosphorylated NKG2A N- and C-terminal I/VxYxxL stretches, as compared to nonphosphorylated ones (FIG. 15B). The 64 and 68 kDa proteins which bind to phosphorylated NKG2A peptides correspond to SHP-1 and SHP-2 apparent molecular weight respectively, supporting the immunoblotting results. Therefore, our results define the two NKG2A I/VxYxxL stretches as ITIMs which appear to function similarly to other ITIMs present in inhibitory receptors for MHC class I molecules, i.e. KIRs and Ly-49 molecules. Using recombinant soluble tandem SH2 domains of SHP-1 and SHP-2, we confirmed by surface plasmon resonance that both NKG2A ITIM phosphopeptides directly associate with the SH2 domains of SHP-1 and SHP-2, but not with the SH2 domain of SHIP (FIG. 16).

For assay [4], the target named is T4, GST-SHIP.SH2 fusion protein (murine, UniProt Q9ES52 8-104).
T4 construct: also called SH2 domain of SHIP; not shown: Glutathione S-transferase (GST) fusion partner
T4 sequence (looked up): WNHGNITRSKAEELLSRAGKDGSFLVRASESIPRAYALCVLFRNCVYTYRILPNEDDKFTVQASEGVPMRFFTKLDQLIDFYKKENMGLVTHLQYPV
The experiment in a line: SPR (BIAcore) with recombinant GST fusion protein. On the procedure:
Fusion proteins and surface plasmon resonance analysis. Surface plasmon resonance (SPR) measurements were performed on a BIAcore™ (Pharmacia). The GST-SHP-1.SH2(NC), GST-SHP-1.SH2(N), GST-SHP-1.SH2(C), GST-SHIP.SH2 fusion proteins generated from the murine phosphatase cDNA, were purified from DH5α lysates. Briefly, overnight culture at 37° C. in LB medium containing 50 μg/ml ampicillin was diluted 1/10 in fresh medium, and incubated until the absorbance at 600 nm reaches 1-2. At that point, IPTG was added (1 mM), and incubation continued for an additional 4 hours at 37° C. After centrifugation, bacteria pellet was resuspended in TENGN buffer (50 mM Tris pH 8, 1 mM EDTA, 10% glycerol, 1% NP40, 1 mM DTT, 1 mM PMSF, 10 μg/ml aprotinin and 10 μg/ml leupeptine). Bacteria were lysed by sonication. After centrifugation, supernatant was incubated with Glutathione-Sepharose 4B beads (Pharmacia) overnight at 4° C. with slow shaking. After 3 washes with 50 mM Tris pH 8, elution of the fusion protein was carried out using 50 mM Tris pH 8 supplemented with 10 mM reduced glutathione. […] Protein purity was assessed by 12.5% SDS-PAGE, and Coomassie blue staining. […] Then, biotinylated peptides were injected, and their binding to streptavidine-coated microchips was assessed using anti-phosphotyrosine 4G10 mAb (UHI).
Background: Surface plasmon resonance follows binding to a sensor surface in real time, without labels.

T1 sequence (P81718 whole entry): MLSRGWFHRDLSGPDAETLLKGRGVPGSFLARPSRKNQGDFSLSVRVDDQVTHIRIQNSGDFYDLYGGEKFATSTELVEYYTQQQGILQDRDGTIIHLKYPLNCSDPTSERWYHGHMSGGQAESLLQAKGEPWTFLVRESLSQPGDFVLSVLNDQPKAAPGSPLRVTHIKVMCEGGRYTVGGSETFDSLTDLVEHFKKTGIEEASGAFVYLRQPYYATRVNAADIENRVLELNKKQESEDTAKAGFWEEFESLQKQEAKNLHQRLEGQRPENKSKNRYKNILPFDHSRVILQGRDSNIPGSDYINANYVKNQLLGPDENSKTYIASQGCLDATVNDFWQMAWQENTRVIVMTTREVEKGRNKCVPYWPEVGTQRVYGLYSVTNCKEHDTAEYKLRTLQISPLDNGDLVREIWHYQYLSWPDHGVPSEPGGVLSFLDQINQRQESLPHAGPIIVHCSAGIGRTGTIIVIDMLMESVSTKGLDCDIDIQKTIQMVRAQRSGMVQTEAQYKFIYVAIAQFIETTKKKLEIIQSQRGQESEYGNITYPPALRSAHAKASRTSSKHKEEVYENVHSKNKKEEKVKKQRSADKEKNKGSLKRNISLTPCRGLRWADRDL

In the case of Biotin-DEQDPQEAT[pY]AQLN (also called mutated KIR ITIM peptide) [phosphorylated p58.2.1-V301A peptide], the binding result in assay [1] and in assay [2] was “no binding” throughout.

B1: phosphorylated FcγRIIB-I260A peptide (peptide)
peptide: Biotin-KTEAENTAT[pY]SLLK
notes: also called FcγRIIB 1-I260A; mutated FcγRIIB ITIM
For the molecule B1, the binding result in assay [1] and in assay [2] was “no binding” each time.
Take Biotin-RPSQRPKTPPTDIIV[pY]TELPNAEP (also called p58.183.2; p58.133.2) [phosphorylated p58.2.2 peptide (C-terminal KIR ITIM)]: the binding result in assay [3] and in assay [4] was “no binding” in each case.
